From publication doi:10.1101/2020.11.22.393603 (bioRxiv, 2020)

Tests used:
[1] = target: T1, full-length recombinant GLK1 (Arabidopsis thaliana, UniProt Q9SIV3 1-420); assay: SEC
T1 sequence (looked up): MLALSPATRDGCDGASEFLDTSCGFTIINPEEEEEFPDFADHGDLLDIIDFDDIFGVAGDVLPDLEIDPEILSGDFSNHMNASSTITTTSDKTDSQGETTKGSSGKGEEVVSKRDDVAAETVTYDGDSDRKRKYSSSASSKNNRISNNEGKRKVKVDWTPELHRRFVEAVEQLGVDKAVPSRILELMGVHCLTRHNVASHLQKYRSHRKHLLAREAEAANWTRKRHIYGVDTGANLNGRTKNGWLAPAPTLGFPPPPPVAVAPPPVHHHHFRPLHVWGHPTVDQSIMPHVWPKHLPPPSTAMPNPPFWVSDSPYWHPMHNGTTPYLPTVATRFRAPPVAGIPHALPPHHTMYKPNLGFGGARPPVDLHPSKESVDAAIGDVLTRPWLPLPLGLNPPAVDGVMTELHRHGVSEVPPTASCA

[2] = target: T2, full-length recombinant GLK2 (Arabidopsis thaliana, UniProt Q9FFH0 1-386); assay: SEC
T2 sequence (looked up): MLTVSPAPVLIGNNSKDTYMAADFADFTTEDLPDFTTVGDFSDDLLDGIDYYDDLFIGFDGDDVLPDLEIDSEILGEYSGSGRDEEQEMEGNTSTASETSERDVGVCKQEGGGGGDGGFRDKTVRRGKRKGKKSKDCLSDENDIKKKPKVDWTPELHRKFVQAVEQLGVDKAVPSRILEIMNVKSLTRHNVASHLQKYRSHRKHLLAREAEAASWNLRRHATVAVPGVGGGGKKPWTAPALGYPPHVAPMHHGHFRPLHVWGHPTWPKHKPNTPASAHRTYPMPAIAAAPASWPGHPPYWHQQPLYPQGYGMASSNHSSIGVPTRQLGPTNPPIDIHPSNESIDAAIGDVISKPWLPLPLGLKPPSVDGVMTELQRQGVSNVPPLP

B1: full-length recombinant LSD1 (natural protein, Arabidopsis thaliana, UniProt P94077 1-189, looked up)
chain: MKVADMQDQLVCHGCRNLLMYPRGASNVRCALCNTINMVPPPPPPHDMAHIICGGCRTMLMYTRGASSVRCSCCQTTNLVPAHSNQVAHAPSSQVAQINCGHCRTTLMYPYGASSVKCAVCQFVTNVNMSNGRVPLPTNRPNGTACPPSTSTSTPPSQTQTVVVENPMSVDESGKLVSNVVVGVTTDKK
- binding result [1]: binds
- binding result [2]: binds
